Measured values reported in paper PMC3397946, “Identification and Characterization of the Cognate Anti-Sigma Factor and Specific Promoter Elements of a T. tengcongensis ECF Sigma Factor”.

T1: Tt-RpoE1 (Thermoanaerobacter tengcongensis MB4T, UniProt Q8RCT7 1-162)
T1 sequence: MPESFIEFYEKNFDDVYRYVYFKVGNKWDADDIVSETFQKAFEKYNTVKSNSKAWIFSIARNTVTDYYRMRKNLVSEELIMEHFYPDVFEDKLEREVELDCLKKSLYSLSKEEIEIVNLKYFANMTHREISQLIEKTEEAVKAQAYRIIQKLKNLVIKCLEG

T2: Tt-RpoE1 D66A (Thermoanaerobacter tengcongensis MB4T, UniProt Q8RCT7 1-162, D66A)
T2 sequence: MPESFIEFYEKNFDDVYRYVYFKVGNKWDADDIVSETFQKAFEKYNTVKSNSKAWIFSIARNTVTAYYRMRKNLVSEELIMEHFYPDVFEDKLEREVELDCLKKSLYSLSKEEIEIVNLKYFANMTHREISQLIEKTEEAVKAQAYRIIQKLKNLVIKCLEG


Legend:
Tt-RpoE1 [1] = target: T1, Tt-RpoE1; test: EMSA; 5 uM protein; abolition; 50 mM Tris-HCl pH 8.0, 10 mM MgAc2, 30 mM NaCl, 1 mM DTT, 5% glycerol, 30 ug/ml BSA, 0.5 mM EDTA, 1 ug poly(dI-dC), 20 fmol probe in 20 ul, 25 C, 20 min; settings: protein: recombinant; tags: His (pET28a); label: 5'-32P top strand; fork: top 3' overhang 10 nt
Tt-RpoE1 [2] = target: T1, Tt-RpoE1; test: EMSA; 5 uM protein; little effect; 50 mM Tris-HCl pH 8.0, 10 mM MgAc2, 30 mM NaCl, 1 mM DTT, 5% glycerol, 30 ug/ml BSA, 0.5 mM EDTA, 1 ug poly(dI-dC), 20 fmol probe in 20 ul, 25 C, 20 min; settings: protein: recombinant, tags: His (pET28a), label: 5'-32P top strand
Tt-RpoE1 [3] = target: T1, Tt-RpoE1; test: EMSA; 5 uM protein; 50 mM Tris-HCl pH 8.0, 10 mM MgAc2, 30 mM NaCl, 1 mM DTT, 5% glycerol, 30 ug/ml BSA, 0.5 mM EDTA, 1 ug poly(dI-dC), 20 fmol probe in 20 ul, 25 C, 20 min; settings: protein: recombinant; tags: His (pET28a); label: 5'-32P top strand; fork: top 3' overhang 10 nt
Tt-RpoE1 D66A = target: T2, Tt-RpoE1 D66A; test: EMSA; 5 uM protein; D66A cures -12G defect; 50 mM Tris-HCl pH 8.0, 10 mM MgAc2, 30 mM NaCl, 1 mM DTT, 5% glycerol, 30 ug/ml BSA, 0.5 mM EDTA, 1 ug poly(dI-dC), 20 fmol probe in 20 ul, 25 C, 20 min; settings: protein: recombinant; tags: His (pET28a); label: 5'-32P top strand; fork: top 3' overhang 12 nt

Row | Binder | binding result (Tt-RpoE1 [2]; fork: top 3' overhang 12 nt) | other results
1 | D-5-M5 (-32TACC-29 to GGTT) (dsDNA) DNA 1: TGTGGTTTTTTGTGTAGATTTTCGTCTATAAAGGTG DNA 2: GACGAAAATCTACACAAAAAACCACA | – | binding result (Tt-RpoE1 [1]): no binding
2 | D-5-BM3 (-9TA-8 to CC) (dsDNA) DNA 1: TGTTACCTTTTGTGTAGATTTTCGTCCCTAAAGGTG DNA 2: CGAAAATCTACACAAAAGGTAACA | binds | –
3 | D-5-7c (-29C to T) (dsDNA) DNA 1: TGTTACTTTTTGTGTAGATTTTCGTCTATAAAGGTG DNA 2: GACGAAAATCTACACAAAAAGTAACA | – | binding result (Tt-RpoE1 [2]; fork: top 3' overhang 10 nt): binds
4 | D-5-b6a/-12 (-8A to G) (dsDNA) DNA 1: TGTTACCTTTTGTGTAGATTTTCGTCTGTAAAGGTG DNA 2: CGAAAATCTACACAAAAGGTAACA | binds | –
5 | D-5/-10 (dsDNA) DNA 1: TGTTACCTTTTGTGTAGATTTTCGTCTATAAAGGTG DNA 2: GACGAAAATCTACACAAAAGGTAACA | – | binding result (Tt-RpoE1 [3]): binds
6 | D-5-b7t/-12 (-7T to G) (dsDNA) DNA 1: TGTTACCTTTTGTGTAGATTTTCGTCTAGAAAGGTG DNA 2: CGAAAATCTACACAAAAGGTAACA | binds | –
7 | D-5-b8a/-12 (-6A to G) (dsDNA) DNA 1: TGTTACCTTTTGTGTAGATTTTCGTCTATGAAGGTG DNA 2: CGAAAATCTACACAAAAGGTAACA | binds | –
8 | D-5-B2G (-12G to T) (dsDNA) DNA 1: TGTTACCTTTTGTGTAGATTTTCTTCTATAAAGGTG DNA 2: AGAAAATCTACACAAAAGGTAACA | – | binding result (Tt-RpoE1 D66A): binds
